Source: US20230204594A1, “SYSTEMS AND METHODS FOR REAL-TIME CELLULAR DRUG-TARGET ENGAGEMENT” (NERD BIO LLC, priority 2021, published 2023)

Columns and labels:
Assay in all cases: cell-based or functional assay
[1] = target: MTH1 target polypeptide with a 3 amino acid spacer and a carboxy terminal S-tag acceptor peptide
[2] = target: MTH1 target polypeptide with a 10 amino acid spacer and a carboxy terminal S-tag acceptor peptide
[3] = target: MTH1-S-tag fusion protein with no linker between MTH1 and the S-tag peptide

Sequence of His tagged RNase donor protein (S protein) (P61823 other isoform, or with tags, fused parts or gaps limits assumed): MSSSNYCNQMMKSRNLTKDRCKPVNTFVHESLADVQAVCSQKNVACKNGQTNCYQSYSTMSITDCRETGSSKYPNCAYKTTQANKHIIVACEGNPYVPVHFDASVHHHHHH

S protein concentration at which the fluorescent signal starts to saturate [1]: 1 to 2 ng/µL
S protein concentration at which the fluorescent signal starts to saturate [2]: 1 to 2 ng/µL
S protein concentration at which the fluorescent signal starts to saturate [3]: 1 to 2 ng/µL
Substance: His tagged RNase donor protein (S protein) (from UniProt P61823 47-150)
